± gives the uncertainty stated by the source.
Experiment: self-splicing fitness, log relative to wild type (ln ratio); higher = more splicing; Tetrahymena group I intron in knt gene, E. coli kanamycin selection, DiMSum; sequences stand for … in CUCUCU…GGAGGGAAAAGUUAUCAGGCAUGCACCUGGUAGCUAGUCUUUAAACCAAUAGAUUGCAUCGGUUUAAAAGGCAAGACCGUCAAAUUGCGGGAAAGGGGUCAACAGCCGUUCAGUACCAAGUCUCAGGGGAAACUUUGAGAUGGCCUUGCAAAGGGUAUGGUAAUAAGCUGACGGACAUGGUCCUAACCACGCAGCCAAGUCCUAAGUCAACAGAUCUUCUGUUGAUAUGGAUGCAGUUCACAGACUAAAUGUCGGUCGGGGAAGAUGUAUUCUUCUCAUAAGAUAUAGUCGGACCUCUCCUUAAUGGGAGCUAGCGGAUGAAGUGAUGCAACACUGGAGCCGCUGGGAACUAAUUUGUAUGCGAAAGUAUAUUGAUUAGUUUUGGAGUACUCGUGGUCG
Method in brief: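 DiMSum derived fitness as the error-weighted combination of fold changes across replicates, kanamycin versus no kanamycin, normalised to wild type. E. coli BL21(DE3) held the library, which randomised all eight P1ex-region intron nucleotides within the knt kanamycin-resistance gene on pET-22b(+). Six replicate transformations grew overnight at 37°C or 30°C on LB agar with or without 25 μg/mL kanamycin, also containing 100 μg/mL carbenicillin, 50 μM IPTG and 0.2% rhamnose, and pooled colonies were amplicon-sequenced on an Illumina HiSeq 2500.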

Sequence	self-splicing fitness (ln) (30 °C)	self-splicing fitness (ln) (37 °C)
CCUUAGCAAUAUUACGAUGU	-2.14 ± 0.13	-1.49 ± 0.16
CCUUAGCAAUAUUACGAUUA	-2.28 ± 0.28	-2.61 ± 0.32
CCUUAGCAAUAUUACGCAAG	–	-3.09 ± 0.33
CCUUAGCAAUAUUACGCAAU	-3.51 ± 0.23	-1.47 ± 0.23
CCUUAGCAAUAUUACGCAUC	–	-2.77 ± 0.48
CCUUAGCAAUAUUACGCCAU	-2.87 ± 0.48	-1.57 ± 0.29
CCUUAGCAAUAUUACGCCCU	-1.89 ± 0.48	–
CCUUAGCAAUAUUACGCGAC	-3.16 ± 0.26	-2.12 ± 0.28
CCUUAGCAAUAUUACGCGAU	–	-3.16 ± 0.22
CCUUAGCAAUAUUACGCGUG	-2.33 ± 0.12	-2.61 ± 0.12
CCUUAGCAAUAUUACGCUUA	-3.61 ± 0.34	-2.66 ± 0.33
CCUUAGCAAUAUUACGGACG	-1 ± 0.13	-0.586 ± 0.17
CCUUAGCAAUAUUACGGCAA	-3.57 ± 0.33	-2.54 ± 0.24
CCUUAGCAAUAUUACGGCGC	-2.98 ± 0.27	–
CCUUAGCAAUAUUACGGGCC	-2.94 ± 0.31	-2.54 ± 0.35
CCUUAGCAAUAUUACGGUCG	-0.919 ± 0.092	-0.755 ± 0.097
CCUUAGCAAUAUUACGGUUA	-3.48 ± 0.24	-2.24 ± 0.16
CCUUAGCAAUAUUACGUACC	-3.04 ± 0.45	–
CCUUAGCAAUAUUACGUCGC	-3.07 ± 0.4	-2.66 ± 0.38
CCUUAGCAAUAUUACGUCGG	-3.99 ± 0.26	-1.37 ± 0.15
CCUUAGCAAUAUUACGUGCA	-3.43 ± 0.23	-3.76 ± 0.28

Sequence	self-splicing fitness (ln) (30 °C)	self-splicing fitness (ln) (37 °C)
CCUUAGCAAUAUUACGUUAG	-4.07 ± 0.21	-2.67 ± 0.26
CCUUAGCAAUAUUACGUUGU	-3.12 ± 0.17	-3.27 ± 0.24
CCUUAGCAAUAUUACGUUUG	-3.99 ± 0.24	-2.47 ± 0.18
CGAAAGCAAUAUUACGAACC	-0.666 ± 0.14	-0.796 ± 0.16
CGAAAGCAAUAUUACGACUU	-1.64 ± 0.12	-0.99 ± 0.14
CGAAAGCAAUAUUACGAGAG	-3.12 ± 0.17	-2.58 ± 0.18
CGAAAGCAAUAUUACGAUCU	-0.599 ± 0.076	0.313 ± 0.11
CGAAAGCAAUAUUACGAUUC	–	-2.13 ± 0.26
CGAAAGCAAUAUUACGCAGG	-2.16 ± 0.091	-1.4 ± 0.093
CGAAAGCAAUAUUACGCGGC	-2.81 ± 0.3	-2.38 ± 0.31
CGAAAGCAAUAUUACGCGGG	-2.77 ± 0.18	-1.88 ± 0.19
CGAAAGCAAUAUUACGCUCA	-0.156 ± 0.094	0.0149 ± 0.13
CGAAAGCAAUAUUACGGCGC	-1.14 ± 0.13	-0.908 ± 0.15
CGAAAGCAAUAUUACGGGAU	-2.98 ± 0.21	-2.87 ± 0.27
CGAAAGCAAUAUUACGGGGA	-3.09 ± 0.31	-1.85 ± 0.2
CGAAAGCAAUAUUACGGUCG	-2.88 ± 0.15	-2.19 ± 0.16
CGAAAGCAAUAUUACGGUGA	-1.52 ± 0.084	-0.808 ± 0.11
CGAAAGCAAUAUUACGUAAC	–	-0.987 ± 0.5
CGAAAGCAAUAUUACGUAGC	-3.4 ± 0.29	-2.39 ± 0.27
CGAAAGCAAUAUUACGUCAG	-1.1 ± 0.08	0.335 ± 0.11

Source: the supplement of paper PMC7877785
